B1: ADD1 (parent)
chain: LRHSFQKQQREKTRWLNSGRGDEA
B2: KRT18 (parent)
chain: RAQYDELARKNREELDKYWSQQIE

Variants of: B1
Test: protein stability index of a GFP-peptide fusion (GPS, HEK-293T) (PSI 1-6); higher = more stable
Settings: c terminus: a fixed tail appended
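Also: lentivirally expressed fusions sorted by FACS into six bins by GFP to DsRed ratio, PSI derived from sequencing read proportions per bin multiplied by bin number.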

| Variant | protein stability index |
| --- | --- |
| S18K | 3.67 |
| S18P | 3.93 |
| S18Y | 3.79 |
| S18T | 3.51 |
| S18G | 3.92 |
| S18M | 3.36 |
| S18D | 3.11 |
| S18V | 3.53 |
| S18L | 3.39 |
| S18Q | 3.55 |
| S18R | 2.63 |
| S18E | 4.28 |
| S18N | 3.96 |
| S18I | 3.85 |
| S18H | 3.19 |
| S18F | 2.87 |
| S18C | 3.26 |
| S18W | 3.51 |
| S18A | 4.02 |
| K12S | 3.54 |
| K12Y | 3.48 |
| K12G | 4.09 |
| K12W | 2.72 |
| K12R | 3.88 |

| Variant | protein stability index |
| --- | --- |
| K12M | 3.42 |
| K12L | 3.51 |
| K12F | 3.05 |
| K12Q | 3.85 |
| K12E | 4.24 |
| K12V | 3.27 |
| K12H | 3.58 |
| K12T | 3.57 |
| K12D | 3.96 |
| K12A | 4.1 |
| K12N | 3.73 |
| K12C | 3.79 |
| K12I | 3.46 |
| K12P | 3.56 |
| E23V | 3.47 |
| E23A | 3.98 |
| E23L | 2.38 |
| E23T | 3.48 |
| E23W | 2.77 |
| E23I | 3.24 |
| E23N | 3.73 |
| E23R | 3.49 |
| E23D | 3.6 |
| E23S | 3.83 |

| Variant | protein stability index |
| --- | --- |
| E23K | 2.73 |
| E23C | 3.54 |
| E23M | 3.25 |
| E23F | 2.28 |
| E23G | 3.64 |
| E23Y | 2.66 |
| E23H | 3.23 |
| E23P | 3.75 |
| E23Q | 3.2 |
| W15R | 4.62 |
| W15V | 3.97 |
| W15P | 4.66 |
| W15Y | 4.17 |
| W15T | 4.65 |
| W15C | 3.73 |
| W15E | 4.81 |
| W15N | 4.54 |
| W15F | 4.05 |
| W15I | 4.27 |
| W15Q | 4.84 |
| W15A | 4.07 |
| W15M | 4.25 |
| W15L | 4.38 |
| W15D | 4.42 |

| Variant | protein stability index |
| --- | --- |
| W15H | 5.01 |
| W15K | 4.08 |
| W15G | 4.72 |
| W15S | 4.68 |
| L16A | 3.66 |
| L16C | 4.06 |
| L16I | 3.67 |
| L16F | 3.28 |
| L16Q | 4.01 |
| L16W | 2.35 |
| L16K | 4.22 |
| L16Y | 3.42 |
| L16G | 4 |
| L16H | 3.42 |
| L16S | 4.22 |
| L16P | 4.57 |
| L16N | 3.94 |
| L16D | 4.69 |
| L16M | 3.88 |
| L16E | 4.72 |
| L16T | 3.57 |
| L16R | 4.03 |
| Q8P | 4.13 |
| Q8M | 3.32 |

| Variant | protein stability index |
| --- | --- |
| Q8T | 3.93 |
| Q8V | 3.48 |
| Q8N | 3.15 |
| Q8Y | 2.71 |
| Q8S | 3.63 |
| Q8R | 3.48 |
| Q8W | 2.08 |
| D22W | 1.99 |
| D22N | 3.69 |
| D22I | 2.68 |
| D22K | 3.4 |
| D22C | 3.18 |
| D22E | 3.89 |
| D22S | 3.9 |
| D22V | 3.25 |
| D22R | 3.73 |
| D22M | 3.47 |
| D22P | 2.83 |
| D22Q | 3.74 |
| D22A | 3.57 |
| D22H | 3.94 |
| D22G | 3.62 |
| D22L | 2.71 |
| D22Y | 2.78 |

| Variant | protein stability index |
| --- | --- |
| D22F | 3.64 |
| D22T | 3.29 |
| T13L | 3.54 |
| T13H | 3.9 |
| T13Q | 3.2 |
| T13D | 4.12 |
| T13R | 3.83 |
| T13E | 4.27 |
| T13A | 3.53 |
| T13V | 3.26 |
| T13F | 3.29 |
| T13P | 3.52 |
| T13Y | 2.93 |
| T13S | 3.36 |
| T13W | 2.58 |
| T13K | 3.91 |
| T13C | 3.6 |
| T13N | 4.27 |
| T13M | 3.25 |
| T13I | 4.01 |
| T13G | 4.07 |
| R20T | 3.75 |
| R20P | 4.17 |
| R20Q | 3.95 |

| Variant | protein stability index |
| --- | --- |
| R20W | 3.26 |
| R20S | 4.12 |
| R20G | 3.71 |
| R20N | 3.62 |
| R20A | 3.84 |
| R20D | 4.88 |
| R20L | 2.24 |
| R20F | 3.21 |
| R20V | 3.88 |
| R20E | 4.28 |
| R20M | 3.78 |
| R20H | 4.05 |
| R20C | 3.91 |
| R20Y | 3.47 |
| R20K | 4.03 |
| R20I | 3.54 |
| R10D | 4.23 |
| R10W | 2.66 |
| R10G | 3.72 |
| R10T | 3.83 |
| R10L | 3.82 |
| R10K | 3.9 |
| R10I | 3.65 |
| R10E | 4.67 |

| Variant | protein stability index |
| --- | --- |
| R10H | 4.13 |
| R10Q | 4.44 |
| R10M | 3.44 |
| R10S | 4.58 |
| R10P | 3.53 |
| R10C | 3.58 |
| R10A | 4.17 |
| R10F | 3.92 |
| R10V | 3.48 |
| R10Y | 3.64 |
| R10N | 3.95 |
| G19A | 3.82 |
| G19R | 3.65 |
| G19H | 3.56 |
| G19V | 2.82 |
| G19M | 3.57 |
| G19C | 2.22 |
| G19Q | 3.7 |
| G19L | 3.35 |
| G19K | 3.69 |
| G19P | 3.65 |
| G19T | 3.37 |
| G19W | 2.63 |
| G19E | 4.29 |

| Variant | protein stability index |
| --- | --- |
| G19Y | 3 |
| G19N | 3.6 |
| G19D | 4.6 |
| G19F | 2.83 |
| G19S | 3.81 |
| G19I | 2.73 |
| Q9V | 3.35 |
| Q9P | 3.44 |
| Q9N | 3.72 |
| Q9A | 4.12 |
| Q9K | 3.92 |
| Q9R | 3.75 |
| Q9I | 3.18 |
| Q9D | 4.06 |
| Q9H | 3.7 |
| Q9W | 2.94 |
| Q9G | 4.15 |
| Q9M | 3.84 |
| Q9F | 2.71 |
| Q9T | 3.83 |
| Q9E | 4.29 |
| Q9L | 3.23 |
| Q9S | 3.64 |
| Q9Y | 3.01 |

| Variant | protein stability index |
| --- | --- |
| Q9C | 1.73 |
| E11R | 3.65 |
| E11V | 2.88 |
| E11N | 2.57 |
| E11S | 3.13 |
| E11L | 2.28 |
| E11P | 3.91 |
| E11K | 3.17 |
| E11Y | 2.36 |
| E11Q | 2.87 |
| E11F | 2.24 |
| E11C | 1.93 |
| E11M | 2.26 |
| E11T | 3.11 |
| E11W | 2.56 |
| E11I | 2.21 |
| E11G | 3.27 |
| E11H | 3.27 |
| E11A | 3.41 |
| E11D | 4.47 |
| G21Y | 3.01 |
| G21L | 3.64 |
| G21C | 3.21 |
| G21S | 3.63 |

| Variant | protein stability index |
| --- | --- |
| G21N | 3.43 |
| G21I | 3.42 |
| G21T | 3.33 |
| G21V | 3.59 |
| G21A | 4 |
| G21K | 3.84 |
| G21F | 3.39 |
| G21H | 3.2 |
| G21D | 4.42 |
| G21P | 3.71 |
| G21M | 3.4 |
| G21Q | 3.49 |
| G21E | 3.99 |
| G21W | 3.03 |
| G21R | 3.47 |
| A24P | 3.58 |
| A24H | 3.31 |
| A24W | 1.65 |
| A24G | 3.96 |
| A24L | 3.08 |
| A24D | 3.95 |
| A24C | 3.51 |
| A24T | 3.48 |
| A24E | 4.52 |

| Variant | protein stability index |
| --- | --- |
| A24Y | 3.18 |
| A24M | 3.56 |
| A24I | 3.15 |
| A24K | 4.12 |
| A24R | 3.93 |
| A24V | 3.56 |
| A24F | 2.69 |
| A24N | 4.03 |
| A24Q | 4.03 |
| A24S | 3.9 |
| R14C | 2.68 |
| R14L | 3.02 |
| R14W | 3.25 |
| R14I | 3.02 |
| R14S | 4.03 |
| R14V | 3.95 |
| R14Y | 2.76 |
| R14G | 4.03 |
| R14H | 3.98 |
| R14T | 3.15 |
| R14F | 3.52 |
| R14E | 4.59 |
| R14Q | 4.3 |
| R14M | 3.42 |

| Variant | protein stability index |
| --- | --- |
| R14N | 3.58 |
| R14P | 3.86 |
| R14K | 3.78 |
| R14D | 3.52 |
| R14A | 3.58 |
| N17D | 3.94 |
| N17A | 3.81 |
| N17F | 3.14 |
| N17H | 2.54 |
| N17P | 4.03 |
| N17K | 3.65 |
| N17I | 2.7 |
| N17C | 3.15 |
| N17E | 3.95 |
| N17Y | 2.91 |
| N17R | 2.49 |
| N17G | 3.82 |
| N17W | 2.59 |
| N17V | 4.03 |
| N17T | 3.4 |
| N17S | 3.88 |
| N17M | 3.05 |
| N17Q | 3.83 |
| N17L | 3.05 |

Variants of: B2
Test: as above
Settings: c terminus: a fixed tail appended

| Variant | protein stability index |
| --- | --- |
| A2C | 2.48 |
| A2D | 3.18 |
| A2E | 3.34 |
| R1C | 2.19 |
| R1Q | 3.07 |
| R1Y | 2.29 |
| R1M | 2.97 |
| R1P | 3.08 |
| R1W | 2.12 |
| R1K | 2.29 |
| R1N | 2.99 |
| R1E | 3.06 |
| R1G | 3.12 |
| R1H | 2.97 |
| R1T | 3.02 |
| R1I | 2.79 |
| R1V | 3.71 |
| R1S | 3.06 |
| R1F | 2.47 |
| R1D | 2.87 |
| R1A | 3.38 |
| R1L | 2.79 |

From the supplement of paper PMC10567573
